Article PMC9482650, “Quantitative fragmentomics allow affinity mapping of interactomes” (Nature Communications, 2022)

T1: SNTG2, Q9NY99
T1 sequence (Q9NY99 68-166, limits assumed, looked up): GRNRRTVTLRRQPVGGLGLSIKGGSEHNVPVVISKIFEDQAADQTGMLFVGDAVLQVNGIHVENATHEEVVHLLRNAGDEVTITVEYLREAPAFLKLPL

T2: APBA1_2, Q02410
T2 sequence (Q02410 742-832, limits assumed, looked up): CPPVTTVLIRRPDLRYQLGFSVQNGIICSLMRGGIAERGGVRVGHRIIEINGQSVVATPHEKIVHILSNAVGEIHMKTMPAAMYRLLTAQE

T3: CARD11, Q9BXL7
T3 sequence (Q9BXL7 662-765, limits assumed, looked up): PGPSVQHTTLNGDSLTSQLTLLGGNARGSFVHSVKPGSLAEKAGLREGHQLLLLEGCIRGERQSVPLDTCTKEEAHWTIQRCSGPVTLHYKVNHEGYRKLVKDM

T4: LRRC7, Q96NW7
T4 sequence (Q96NW7 1440-1537, limits assumed, looked up): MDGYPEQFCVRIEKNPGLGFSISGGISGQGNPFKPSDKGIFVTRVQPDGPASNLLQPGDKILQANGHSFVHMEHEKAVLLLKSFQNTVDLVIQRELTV

T5: NHERF3_3, Q5T2W1
T5 sequence (Q5T2W1 238-333, limits assumed, looked up): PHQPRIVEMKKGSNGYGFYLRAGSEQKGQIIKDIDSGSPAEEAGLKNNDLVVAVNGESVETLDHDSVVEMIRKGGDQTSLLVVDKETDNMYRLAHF

T6: MPP6, Q9NZW5
T6 sequence (Q9NZW5 125-219, limits assumed, looked up): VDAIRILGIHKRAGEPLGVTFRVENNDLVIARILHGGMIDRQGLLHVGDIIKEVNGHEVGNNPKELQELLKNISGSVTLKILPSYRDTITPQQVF

T7: NHERF3_1, Q5T2W1
T7 sequence (Q5T2W1 4-100, limits assumed, looked up): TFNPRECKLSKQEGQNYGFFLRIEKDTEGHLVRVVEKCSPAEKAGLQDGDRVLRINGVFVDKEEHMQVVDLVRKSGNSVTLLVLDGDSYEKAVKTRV

T8: PARD3B_1, Q8TEW8
T8 sequence (Q8TEW8 196-299, limits assumed, looked up): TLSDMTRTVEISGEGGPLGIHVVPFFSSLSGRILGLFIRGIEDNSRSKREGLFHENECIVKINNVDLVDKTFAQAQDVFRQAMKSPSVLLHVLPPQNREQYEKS

T9: SNTG1, Q9NSN8
T9 sequence (Q9NSN8 52-150, limits assumed, looked up): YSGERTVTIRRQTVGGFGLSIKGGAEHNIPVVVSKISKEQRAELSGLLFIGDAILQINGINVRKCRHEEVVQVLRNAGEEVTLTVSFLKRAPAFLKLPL


Target: AHNAK1, Q09666
Sequence (Q09666 4-100): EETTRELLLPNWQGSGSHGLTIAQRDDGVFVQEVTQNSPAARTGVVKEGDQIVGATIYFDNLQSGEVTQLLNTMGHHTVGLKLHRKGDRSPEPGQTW
Assay: holdup assay
Design: key: below the threshold = too weak to quantify, mostly under pKd 3.1 to 4
Conditions: plain residues with an end cap or a label only (N-terminal biotin on a linker: ado-ado)

| pKd | Binder |
| --- | --- |
| below the threshold | EPAKETTTNV [SLC2A3, P11169] |

Target: GRASP, Q7Z6J2
Sequence (Q7Z6J2 96-193): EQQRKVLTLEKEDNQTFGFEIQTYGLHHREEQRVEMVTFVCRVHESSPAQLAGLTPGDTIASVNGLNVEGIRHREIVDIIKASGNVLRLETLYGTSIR
Assay: holdup assay
Design: key: below the threshold = too weak to quantify, mostly under pKd 3.1 to 4
Conditions: plain residues with an end cap or a label only (N-terminal biotin on a linker: ado-ado)

| pKd | Binder |
| --- | --- |
| 3.69 | EPAKETTTNV [SLC2A3, P11169] |

Target: LNX1_1, Q8TBB1
Sequence (Q8TBB1 261-371): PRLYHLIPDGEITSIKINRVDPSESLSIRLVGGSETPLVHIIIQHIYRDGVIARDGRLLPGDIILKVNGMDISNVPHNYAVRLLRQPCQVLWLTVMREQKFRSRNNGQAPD
Assay: holdup assay
Design: key: below the threshold = too weak to quantify, mostly under pKd 3.1 to 4
Conditions: plain residues with an end cap or a label only (N-terminal biotin on a linker: ado-ado)

| pKd | Binder |
| --- | --- |
| below the threshold | EPAKETTTNV [SLC2A3, P11169] |

Target: IL16_4, Q14005
Sequence (Q14005 1229-1329): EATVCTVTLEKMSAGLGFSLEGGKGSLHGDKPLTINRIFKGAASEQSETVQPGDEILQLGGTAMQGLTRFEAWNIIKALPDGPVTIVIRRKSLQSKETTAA
Assay: holdup assay
Design: key: below the threshold = too weak to quantify, mostly under pKd 3.1 to 4
Conditions: plain residues with an end cap or a label only (N-terminal biotin on a linker: ado-ado)

| pKd | Binder |
| --- | --- |
| below the threshold | EPAKETTTNV [SLC2A3, P11169] |

Target: T1, SNTG2, Q9NY99
Assay: holdup assay
Design: key: below the threshold = too weak to quantify, mostly under pKd 3.1 to 4
Conditions: plain residues with an end cap or a label only (N-terminal biotin on a linker: ado-ado)

| pKd | Binder |
| --- | --- |
| 4.03 | EPAKETTTNV [SLC2A3, P11169] |

Target: NHERF4_4, Q86UT5
Sequence (Q86UT5 464-550): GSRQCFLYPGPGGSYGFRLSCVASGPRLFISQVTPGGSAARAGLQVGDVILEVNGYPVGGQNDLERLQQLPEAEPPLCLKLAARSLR
Assay: holdup assay
Design: key: below the threshold = too weak to quantify, mostly under pKd 3.1 to 4
Conditions: plain residues with an end cap or a label only (N-terminal biotin on a linker: ado-ado)

| pKd | Binder |
| --- | --- |
| below the threshold | EPAKETTTNV [SLC2A3, P11169] |

Target: SCRIB_3, Q14160
Sequence (Q14160 999-1103): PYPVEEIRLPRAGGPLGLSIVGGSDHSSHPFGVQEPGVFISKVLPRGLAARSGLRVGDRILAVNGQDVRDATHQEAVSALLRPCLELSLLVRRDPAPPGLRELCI
Assay: holdup assay
Design: key: below the threshold = too weak to quantify, mostly under pKd 3.1 to 4
Conditions: plain residues with an end cap or a label only (N-terminal biotin on a linker: ado-ado)

| pKd | Binder |
| --- | --- |
| 3.82 | EPAKETTTNV [SLC2A3, P11169] |

Target: T2, APBA1_2, Q02410
Assay: holdup assay
Design: key: below the threshold = too weak to quantify, mostly under pKd 3.1 to 4
Conditions: plain residues with an end cap or a label only (N-terminal biotin on a linker: ado-ado)

| pKd | Binder |
| --- | --- |
| 3.84 | EPAKETTTNV [SLC2A3, P11169] |

Target: GRIP2_6, Q9C0E4
Sequence (Q9C0E4 648-740): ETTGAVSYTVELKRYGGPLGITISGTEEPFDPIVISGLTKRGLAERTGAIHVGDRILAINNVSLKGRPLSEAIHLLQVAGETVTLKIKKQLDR
Assay: holdup assay
Design: key: below the threshold = too weak to quantify, mostly under pKd 3.1 to 4
Conditions: plain residues with an end cap or a label only (N-terminal biotin on a linker: ado-ado)

| pKd | Binder |
| --- | --- |
| below the threshold | EPAKETTTNV [SLC2A3, P11169] |

Target: SCRIB_1, Q14160
Sequence (Q14160 718-814): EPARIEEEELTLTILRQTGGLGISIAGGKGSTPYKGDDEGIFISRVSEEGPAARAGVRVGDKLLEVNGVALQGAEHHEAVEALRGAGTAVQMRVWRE
Assay: holdup assay
Design: key: below the threshold = too weak to quantify, mostly under pKd 3.1 to 4
Conditions: plain residues with an end cap or a label only (N-terminal biotin on a linker: ado-ado)

| pKd | Binder |
| --- | --- |
| below the threshold | EPAKETTTNV [SLC2A3, P11169] |

Target: T3, CARD11, Q9BXL7
Assay: holdup assay
Design: key: below the threshold = too weak to quantify, mostly under pKd 3.1 to 4
Conditions: plain residues with an end cap or a label only (N-terminal biotin on a linker: ado-ado)

| pKd | Binder |
| --- | --- |
| below the threshold | EPAKETTTNV [SLC2A3, P11169] |

Target: PTPN3, P26045
Sequence (P26045 505-587): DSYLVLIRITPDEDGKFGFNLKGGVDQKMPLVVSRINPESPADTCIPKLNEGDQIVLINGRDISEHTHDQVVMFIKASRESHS
Assay: holdup assay
Design: key: below the threshold = too weak to quantify, mostly under pKd 3.1 to 4
Conditions: plain residues with an end cap or a label only (N-terminal biotin on a linker: ado-ado)

| pKd | Binder |
| --- | --- |
| 4.49 | EPAKETTTNV [SLC2A3, P11169] |

Target: DLG1_3, Q12959
Sequence (Q12959 457-571): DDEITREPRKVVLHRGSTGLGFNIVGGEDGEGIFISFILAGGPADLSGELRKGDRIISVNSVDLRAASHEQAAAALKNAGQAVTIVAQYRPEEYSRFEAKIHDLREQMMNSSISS
Assay: holdup assay
Design: key: below the threshold = too weak to quantify, mostly under pKd 3.1 to 4
Conditions: plain residues with an end cap or a label only (N-terminal biotin on a linker: ado-ado)

| pKd | Binder |
| --- | --- |
| 3.6 | EPAKETTTNV [SLC2A3, P11169] |

Target: LIMK2, P53671
Sequence (P53671 143-248): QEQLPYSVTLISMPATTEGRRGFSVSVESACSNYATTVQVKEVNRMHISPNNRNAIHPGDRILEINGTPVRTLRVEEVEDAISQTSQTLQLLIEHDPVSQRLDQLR
Assay: holdup assay
Design: key: below the threshold = too weak to quantify, mostly under pKd 3.1 to 4
Conditions: plain residues with an end cap or a label only (N-terminal biotin on a linker: ado-ado)

| pKd | Binder |
| --- | --- |
| below the threshold | EPAKETTTNV [SLC2A3, P11169] |

Target: MAGI2_3, Q86UL8
Sequence (Q86UL8 600-682): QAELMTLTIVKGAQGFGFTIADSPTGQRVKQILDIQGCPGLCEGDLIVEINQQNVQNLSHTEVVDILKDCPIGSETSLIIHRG
Assay: holdup assay
Design: key: below the threshold = too weak to quantify, mostly under pKd 3.1 to 4
Conditions: plain residues with an end cap or a label only (N-terminal biotin on a linker: ado-ado)

| pKd | Binder |
| --- | --- |
| below the threshold | EPAKETTTNV [SLC2A3, P11169] |

Target: IL16_1, Q14005
Sequence (Q14005 210-306): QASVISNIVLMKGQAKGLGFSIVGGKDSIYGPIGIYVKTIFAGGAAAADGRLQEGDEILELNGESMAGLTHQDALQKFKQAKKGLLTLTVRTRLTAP
Assay: holdup assay
Design: key: below the threshold = too weak to quantify, mostly under pKd 3.1 to 4
Conditions: plain residues with an end cap or a label only (N-terminal biotin on a linker: ado-ado)

| pKd | Binder |
| --- | --- |
| below the threshold | EPAKETTTNV [SLC2A3, P11169] |

Target: T4, LRRC7, Q96NW7
Assay: holdup assay
Design: key: below the threshold = too weak to quantify, mostly under pKd 3.1 to 4
Conditions: plain residues with an end cap or a label only (N-terminal biotin on a linker: ado-ado)

| pKd | Binder |
| --- | --- |
| below the threshold | EPAKETTTNV [SLC2A3, P11169] |

Target: T5, NHERF3_3, Q5T2W1
Assay: holdup assay
Design: key: below the threshold = too weak to quantify, mostly under pKd 3.1 to 4
Conditions: plain residues with an end cap or a label only (N-terminal biotin on a linker: ado-ado)

| pKd | Binder |
| --- | --- |
| below the threshold | EPAKETTTNV [SLC2A3, P11169] |

Target: T6, MPP6, Q9NZW5
Assay: holdup assay
Design: key: below the threshold = too weak to quantify, mostly under pKd 3.1 to 4
Conditions: plain residues with an end cap or a label only (N-terminal biotin on a linker: ado-ado)

| pKd | Binder |
| --- | --- |
| 3.81 | EPAKETTTNV [SLC2A3, P11169] |

Target: DLG2_2, Q15700
Sequence (Q15700 189-283): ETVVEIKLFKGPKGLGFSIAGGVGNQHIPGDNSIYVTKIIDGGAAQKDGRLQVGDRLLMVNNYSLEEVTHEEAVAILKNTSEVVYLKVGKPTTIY
Assay: holdup assay
Design: key: below the threshold = too weak to quantify, mostly under pKd 3.1 to 4
Conditions: plain residues with an end cap or a label only (N-terminal biotin on a linker: ado-ado)

| pKd | Binder |
| --- | --- |
| 4.16 | EPAKETTTNV [SLC2A3, P11169] |

Target: Inadl_3, Q8NI35
Sequence (Q8NI35 359-469): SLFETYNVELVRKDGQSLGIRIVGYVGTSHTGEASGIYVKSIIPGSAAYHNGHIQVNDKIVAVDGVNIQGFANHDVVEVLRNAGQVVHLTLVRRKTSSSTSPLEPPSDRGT
Assay: holdup assay
Design: key: below the threshold = too weak to quantify, mostly under pKd 3.1 to 4
Conditions: plain residues with an end cap or a label only (N-terminal biotin on a linker: ado-ado)

| pKd | Binder |
| --- | --- |
| below the threshold | EPAKETTTNV [SLC2A3, P11169] |

Target: T7, NHERF3_1, Q5T2W1
Assay: holdup assay
Design: key: below the threshold = too weak to quantify, mostly under pKd 3.1 to 4
Conditions: plain residues with an end cap or a label only (N-terminal biotin on a linker: ado-ado)

| pKd | Binder |
| --- | --- |
| 3.79 | EPAKETTTNV [SLC2A3, P11169] |

Target: T8, PARD3B_1, Q8TEW8
Assay: holdup assay
Design: key: below the threshold = too weak to quantify, mostly under pKd 3.1 to 4
Conditions: plain residues with an end cap or a label only (N-terminal biotin on a linker: ado-ado)

| pKd | Binder |
| --- | --- |
| below the threshold | EPAKETTTNV [SLC2A3, P11169] |

Target: DLG5_1, Q8TDM6
Sequence (Q8TDM6 617-713): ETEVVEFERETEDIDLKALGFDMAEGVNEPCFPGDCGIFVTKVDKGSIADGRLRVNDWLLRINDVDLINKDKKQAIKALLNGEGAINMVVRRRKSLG
Assay: holdup assay
Design: key: below the threshold = too weak to quantify, mostly under pKd 3.1 to 4
Conditions: plain residues with an end cap or a label only (N-terminal biotin on a linker: ado-ado)

| pKd | Binder |
| --- | --- |
| below the threshold | EPAKETTTNV [SLC2A3, P11169] |

Target: T9, SNTG1, Q9NSN8
Assay: holdup assay
Design: key: below the threshold = too weak to quantify, mostly under pKd 3.1 to 4
Conditions: plain residues with an end cap or a label only (N-terminal biotin on a linker: ado-ado)

| pKd | Binder |
| --- | --- |
| 4.06 | EPAKETTTNV [SLC2A3, P11169] |

Target: PICK1, Q9NRD5
Sequence (Q9NRD5 17-115): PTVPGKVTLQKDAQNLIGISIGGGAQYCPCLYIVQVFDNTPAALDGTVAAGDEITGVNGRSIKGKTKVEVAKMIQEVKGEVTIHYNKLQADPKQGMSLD
Assay: holdup assay
Design: key: below the threshold = too weak to quantify, mostly under pKd 3.1 to 4
Conditions: plain residues with an end cap or a label only (N-terminal biotin on a linker: ado-ado)

| pKd | Binder |
| --- | --- |
| below the threshold | EPAKETTTNV [SLC2A3, P11169] |

Target: LDB3, O75112
Sequence (O75112 1-94): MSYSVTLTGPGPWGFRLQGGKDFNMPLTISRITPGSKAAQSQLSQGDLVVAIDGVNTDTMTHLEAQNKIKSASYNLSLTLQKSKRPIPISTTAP
Assay: holdup assay
Design: key: below the threshold = too weak to quantify, mostly under pKd 3.1 to 4
Conditions: plain residues with an end cap or a label only (N-terminal biotin on a linker: ado-ado)

| pKd | Binder |
| --- | --- |
| below the threshold | EPAKETTTNV [SLC2A3, P11169] |

Target: TJP1_3, Q07157
Sequence (Q07157 416-512): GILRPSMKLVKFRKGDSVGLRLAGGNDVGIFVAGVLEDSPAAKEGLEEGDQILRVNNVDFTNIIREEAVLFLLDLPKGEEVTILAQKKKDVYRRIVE
Assay: holdup assay
Design: key: below the threshold = too weak to quantify, mostly under pKd 3.1 to 4
Conditions: plain residues with an end cap or a label only (N-terminal biotin on a linker: ado-ado)

| pKd | Binder |
| --- | --- |
| below the threshold | EPAKETTTNV [SLC2A3, P11169] |
